Experimental findings from PMC13082335, “Matrix plasticity and the molecular basis of extracellular filament assembly in Bacillus cereus” (Science Advances, 2026) are described below.

Data set [1] has as its target CapP-His (full-length CapP, BC1280, with C-terminal polyhistidine tag) (Bacillus cereus ATCC14579) (UniProt Q81GC7). Kind of data set: native gel or EMSA; native PAGE (Any kD Mini-PROTEAN TGX), 25 mM tris, 192 mM glycine, 200 V, NativeMark marker, Coomassie; second SEC peak. (A gel shift assay detects complexes by their altered migration in electrophoresis.)
Data set [2] concerns the molecule itself. The description is as above.

Broadly, the stoichiometry N is the number of molecules, sites or subunits per partner or assembly. For “CapP-His (full-length CapP, BC1280, with C-terminal polyhistidine tag) (from UniProt Q81GC7 1-279) (natural protein)”, in data set [1], the stoichiometry N was determined as 15.

B1: N-domain(39-190)-His of CapP (domain or fragment)
chain: AAFIHETKVEATLSTAIIFPKTVNTLKEQSEKHKQFIEREYGTMKGKLKATSIEEIKQAISVWQQGREKIVAEKEALQNVYTEIEAPYNQIQEELKVNKDESMQQVSIYVNEGFRSIKEKRDYIEKEISLKAIDEQIQALQQQLNVAIEAEG
notes: CapP (BC1280) of Bacillus cereus ATCC14579, residues A39 to G190 (N-terminal domain); also called N-terminal domain; N-terminal construct; source: E. coli Lemo21 (DE3) pLysS, pET24b, purified under native conditions (HisTrap, Superdex 75 SEC); not shown: His6, C-terminal, kept
B1: the “stoichiometry N” value in data set [2] is about 15.
